In the assay the target is T1, recombinant 6His-Sp17 protein (human, UniProt Q15506 1-151, limits assumed).
T1 construct: The species is not restated for this recombinant protein; not shown: 6His tag
T1 sequence (looked up): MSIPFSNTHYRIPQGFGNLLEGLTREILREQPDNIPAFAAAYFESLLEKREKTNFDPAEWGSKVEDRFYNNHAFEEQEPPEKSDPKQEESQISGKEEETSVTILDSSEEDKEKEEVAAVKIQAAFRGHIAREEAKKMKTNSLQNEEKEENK
Description: SPR (Biacore T200), 6His-Sp17 at 6.25-300 nM as analyte. From the text: The lines correspond, from highest to lowest, to fitted cycles for 300 nanomolar, 100 nanomolar, 50 nanomolar, 25 nanomolar, 12.5 nanomolar, and 6.25 nanomolar concentrations of 6His-Sp17.
The nucleotide sequences encoding the VH and VL regions of Example 1 were cloned into a mouse IgG2a heavy chain gene and a mouse kappa light chain gene, respectively, and expressed in CHO—S cells to produce a mouse-human chimeric antibody, which was named chAB2. Successful generation of the antibody was confirmed by SDS-PAGE and western blotting using anti-mouse heavy and light chain antibodies and recombinant Sp17 protein (FIGS. 2 & 3). The chAB2 antibody was reactive to mouse surface Sp17 protein expressed on the mouse ovarian cancer cell line ID8 (FIG. 4).

B1: mouse-human chimeric anti-Sp17 IgG2a/kappa monoclonal antibody chAB2 (antibody, V domains shown)
VH: QVQLQQSGAEVKKPGSSVKVSCKASGGTFSSYAISWVRQAPGQGLEWMGRIIPILGIANYAQKFQGRVTITADKSTSTAYMELSSLRSEDTAVYYCARPSEEVVAAYGAFDIWGQGTTVTVSS
VL: EIVLTQSPLSLPVRPGEPASISCRASQSLLRSDGFNYLDWYLQKPGQSPQLLVYLGSNRASGVPDRFSGSGSGTDFTLKISRVEAEDVGVYYCMQAVQTPYIFGQGTKLEIK
notes: also called anti-Sp17 antibody chAB2; chimeric monoclonal antibody (chAB2); not shown: mouse IgG2a heavy chain constant region; mouse kappa light chain constant region
For orientation: Kd means a measure of binding affinity in units of concentration. Usually koff stands for a measure of how fast the partners let go of each other. A word on the kon: it is a measure of how fast the partners come together. As for B1, the Kd was 2.07 nM, the koff came to 0.00013 s⁻¹ and the kon is 62600 M⁻¹ s⁻¹.

The values are drawn from patent US20250127942A1 (MEDICOVESTOR, published 2025).
